Reference: patent US8530168B2, “Fusion protein comprising a Caspase domain and a nuclear hormone receptor binding domain and methods and uses thereof” (Helmholtz Zentrum Munich Deutsches Forschungszentrum fuer …, priority 2007, dated 2013)

How the values were obtained:
[1] = system: M5/N9 cells expressing myrCasp8-ER(T2); assay: Ligand dose response, MTT assay, in cells expressing myrCasp8-ER(T2); assay type: cell-based, murine; details: 48 hours, data not shown
Protocol: (b) Transient cotransfection of a β-galactosidase reporter with a Cre-ER(T2), myrCasp8-ER(T2), or Casp9-ER(T2) expression plasmid into murine M5/N9 (black columns), human HeLa (grey columns) or zebrafish Pac2 (open columns) cells. 12 h following transfection, cells were cultured for 36 h with 4-OH-tamoxifen at 10^−8 M and the activity of β-galactosidase in cell lysates was determined. Values obtained from transfections of the Cre-ER(T2) vector were defined as reference.
To quantify 4-OH-tamoxifen-inducible cell death, we applied the colorimetric MTT assay (Mossman, J. Immunol. Methods, 65, 55 (1983)) allowing the quantification of cell survival. Cells (4·10^3) were plated on 96-well plates. The assay was carried out in three replicas for each sample treated with and without 4-OH-tamoxifen. After 12 h, medium was replaced either with fresh medium or with medium supplemented with 10^−8 M 4-OH-tamoxifen. […] The crystals were dissolved in 150 μl 0.04 N HCl/isopropanol to give a homogeneous blue solution suitable for absorbance measurement at a wavelength of 570 nm on the Synergy™ HT Multi-Detection Microplate Reader (BioTek).
Cell viability was determined following 48 hours of incubation with the respective ligand at concentrations ranging from 10^−6 M to 10^−12 M by using the MTT assay. […]

MEF5/N9 cells [2] = assay: Visible phenotypic changes / viability of stably transfected MEF5/N9 clones on 4-OH-tamoxifen treatment; assay type: cell-based, mouse; details: 10^−8 M 4-OH-tamoxifen, 24 h
Protocol: (§1) To generate stably transfected MEF5/N9 cells, 2·10^6 cells were coelectroporated with 32 μg ER(T2) fusion plasmid DNA linearised with ScaI and 8 μg pPgk-hygro-pA plasmid DNA linearised with XhoI and plated into two 96-well plates. The cells were grown in DMEM medium (Invitrogen) supplemented with 2 mM Glutamine and 10% fetal calf serum at 37° C., 5% CO2 in humid atmosphere, and passaged upon trypsinization. Two days after transfection the medium was supplemented with 250 U/ml of hygromycin (Calbiochem) for the selection of stable integrants. Upon the growth of resistant colonies these were individually expanded in the presence of hygromycin.
To examine 4-OH-tamoxifen-dependent cell death, 1·10^5 MEF5/N9 cells expressing ER(T2) fusion proteins were plated into each well of a six-well plate. The following day, for each sample the medium in two of four individual wells were replaced with medium supplemented with 10^−8 M 4-hydroxy-tamoxifen. 24 hours after induction with 4-OH-tamoxifen, cells were photographed through a Leica DMI6000B fluorescence microscope with phase contrast either at 10-fold or 20-fold magnification.
Since the responsiveness of the clones, transfected with the same construct, to 4-OH-tamoxifen differed only slightly from each other, only the results obtained from one clone for each construct are shown in the figure.

MEF5/N9 cells [3] = assay: Transient cotransfection of ER(T2) fusion expression vectors with β-galactosidase reporter; β-galactosidase activity in lysates; assay type: cell-based, mouse; details: no 4-OH-tamoxifen; transient transfection 50 or 100 ng vector; relative to Cre-ER(T2) without 4-OH-tamoxifen
MEF5/N9 cells [4] = assay: as above; assay type: cell-based, mouse; details: 10^−8 M 4-OH-tamoxifen, 48 h; relative to Cre-ER(T2) without 4-OH-tamoxifen
Protocol: The transformed mouse embryonic fibroblast cell line MEF5/N9 (Schwenk et al., Nucleic Acids Research, 26(6) 1427-1432 (1998)) was obtained from Michel Aguet (University of Zurich, Switzerland). The cells were grown in DMEM medium (Life Technologies) supplemented with 2 mM […] and 10% fetal calf serum at 37° C., 5% CO2 in humid atmosphere and passaged upon trypsinization. One day before transient transfection 4·10^4 cells were plated into a 24-well plate (Falcon). For the transient transfection of MEF5/N9 cells with plasmids, each well received into 500 μl of medium a total amount of 150 ng or 200 ng supercoiled plasmid DNA complexed before with the FuGene6 transfection reagent (Roche Diagnostics GmbH, Mannheim, Germany) according to the manufacturer's protocol. Each 150 ng or 200 ng DNA preparation (FIG. 2 sample 1 to 11) contained 100 ng of the β-Galactosidase expression vector pCMV-β-gal-pA (pCMVβ, Clontech, FIG. 1G, SEQ ID NO: 56), and 100 ng of the fusion ER(T2) expression vectors to be tested (FIG. 2 sample 3-7, 10-11) and the control plasmids (FIG. 2 sample 1-3), except for the samples with the plasmids pCAG-Casp9full-ER(T2)-bpA (FIG. 2 sample 8) and pCAG-Casp9trunc-ER(T2)-bpA (FIG. 2 sample 9), respectively, that received 50 ng of the test vector. For each sample to be tested four individual wells were transfected. Five hours after the addition of the DNA preparations each well received additional 500 μl of growth medium. The following day, the medium of two wells of each sample was replaced by fresh medium. The other two wells received medium containing 10^−8 M 4-hydroxy-tamoxifen (Sigma). 48 hours after induction with 4-OH-tamoxifen, the cells of each well were lysed with 200 μl lysate reagent supplemented with protease inhibitors (Roche Diagnostics GmbH). The lysates were centrifuged and 50 μl were used to determine the β-galactosidase activities using the β-galactosidase reporter gene assay (Roche Diagnostics GmbH) according to the manufacturer's protocol in a microplate luminometer (Berthold Detection Systems GmbH). The mean value and standard deviation of the samples was calculated from the β-galactosidase RLU values obtained from the two transfected wells of each sample. The relative β-galactosidase activity was obtained by comparison to the negative control (pCAG-Cre-ER(T2)-bpA) without 4-OH-tamoxifen.
To investigate the cell death effect of the different ER(T2) fusion constructs quantitatively, we performed transient cotransfections of the ER(T2) fusion protein expression vectors together with a fixed amount of a reporter plasmid coding for β-galactosidase in MEF5/N9 fibroblast cells. Transfected cells were treated 12 hours after transfection with 4-OH-tamoxifen at a concentration of 10^−8 M. Following 48 hours of 4-OH-tamoxifen induction, the cells from the various samples were lysed and the activity of β-galactosidase in the lysates was determined by a chemiluminescence assay and expressed in “Relative Light Units” (RLU) (FIG. 2). As positive controls for 4-OH-tamoxifen-inducible cell death, we prepared samples transfected with the constructs pCAG-HAFas-ER(T2) or pCAG-MFas-ER(T2) together with the reporter plasmid and treatment with 4-OH-tamoxifen. As negative control for this assay served samples which received the reporter plasmid together with the expression vector pCAG-Cre-ER(T2) and that were treated with 4-OH-tamoxifen.
To determine the relative activity of the tested ER(T2) fusion constructs inducing apoptosis in the presence of 4-OH-tamoxifen, the RLU values of β-galactosidase activity were divided individually for each sample by the RLU value obtained from the sample which received the plasmid pCAG-Cre-ER(T2) but was not treated with 4-OH-tamoxifen (defined as negative control). The relative activity of the tested Caspase- or bax-ER(T2) fusion proteins was then compared to the negative control for 4-OH-tamoxifen-dependent cell death defined as an activity of 1.

MEF5/N9 cells [5] = assay: MTT cytotoxicity assay of stably transfected MEF5/N9 clones; assay type: cell-based, mouse; details: 10^−8 M 4-OH-tamoxifen, 48 h
Protocol: as §1
To quantify 4-OH-tamoxifen-inducible cell death, we applied the colorimetric MTT assay (Mossman, J. Immunol. Methods, 65, 55 (1983)) allowing the quantification of cell survival. Cells (4·10^3) were plated on 96-well plates. The assay was carried out in three replicas for each sample treated with and without 4-OH-tamoxifen. After 12 h, medium was replaced either with fresh medium or with medium supplemented with 10^−8 M 4-OH-tamoxifen. Following 48 h of 4-OH-tamoxifen treatment, sterile filtered MTT reagent in PBS (Sigma) was added at the concentration of 0.5 mg/ml. Incubation occurred for 4 hours at 37° C. With ongoing reaction time, dark violet MTT formazan crystals appeared on the bottom of the wells containing living cells. The crystals were dissolved in 150 μl 0.04 N HCl/isopropanol to give a homogeneous blue solution suitable for absorbance measurement at a wavelength of 570 nm on the Synergy™ HT Multi-Detection Microplate Reader (BioTek).

Molecule: C[C@]12CC[C@@H]3c4ccc(O)cc4CC[C@H]3[C@@H]1CC[C@@H]2O [E2, 17-β-estradiol]
- ligand concentration required to induce cell death [1]: ≥ 10^−7 M

B1: HAFas-ER(T2): HA epitope, transmembrane and intracellular domain of murine Fas (135-305) fused to ER(T2); planned positive control (protein)
chain: MGYPYDVPDYATSNTNCRKQSPRNRLWLLTILVLLIPLVFIYRKYRKRKCWKRRQDDPESRTSSRETIPMNASNLSLSKYIPRIAEDMTIQEAKKFARENNIKEGKIDEIMHDSIQDTAEQKVQLLLCWYQSHGKSDAYQDLIKGLKKAECRRTLDKFQDMVQKDLGKSTPDTGNENEGQCLVEPSAGDMRAANLWPSPLMIKRSKKNSLALSLTADQMVSALLDAEPPILYSEYDPTRPFSEASMMGLLTNLADRELVHMINWAKRVPGFVDLTLHDQVHLLECAWLEILMIGLVWRSMEHPVKLLFAPNLLLDRNQGKCVEGMVEIFDMLLATSSRFRMMNLQGEEFVCLKSIILLNSGVYTFLSSTLKSLEEKDHIHRVLDKITDTLIHLMAKAGLTLQQQHQRLAQLLLILSHIRHMSNKGMEHLYSMKCKNVVPLYDLLLEAADAHRLHAPTSRGGASVEETDQSHLATAGSTSSHSLQKYYITGEAEGFPATA
modifications: fusion protein HAFas-ER(T2)
notes: planned positive control
- 4-OH-tamoxifen-dependent cell death, phenotype of stable clones (MEF5/N9 cells [2]): not affected by the treatment with 4-OH-tamoxifen
- basal toxicity: relative β-galactosidase activity compared to the negative control in absence of 4-OH-tamoxifen (MEF5/N9 cells [3]): 52%
- relative β-galactosidase activity in presence of 4-OH-tamoxifen compared to the negative control (MEF5/N9 cells [4]): 23%
- cell viability in the presence of 4-OH-tamoxifen (MTT) (MEF5/N9 cells [5]): not affected by treatment with 4-OH-tamoxifen

B2: MFas-ER(T2): membrane-targeting signal peptide, transmembrane and intracellular domain of murine Fas fused to ER(T2); planned positive control (protein)
chain: MLWIWAVLPLVLAGSQLRVHTTSNTNCRKQSPRNRLWLLTILVLLIPLVFIYRKYRKRKCWKRRQDDPESRTSSRETIPMNASNLSLSKYIPRIAEDMTIQEAKKFARENNIKEGKIDEIMHDSIQDTAEQKVQLLLCWYQSHGKSDAYQDLIKGLKKAECRRTLDKFQDMVQKDLGKSTPDTGNENEGQCLVEPSAGDMRAANLWPSPLMIKRSKKNSLALSLTADQMVSALLDAEPPILYSEYDPTRPFSEASMMGLLTNLADRELVHMINWAKRVPGFVDLTLHDQVHLLECAWLEILMIGLVWRSMEHPVKLLFAPNLLLDRNQGKCVEGMVEIFDMLLATSSRFRMMNLQGEEFVCLKSIILLNSGVYTFLSSTLKSLEEKDHIHRVLDKITDTLIHLMAKAGLTLQQQHQRLAQLLLILSHIRHMSNKGMEHLYSMKCKNVVPLYDLLLEAADAHRLHAPTSRGGASVEETDQSHLATAGSTSSHSLQKYYITGEAEGFPATA
modifications: fusion protein MFas-ER(T2)
notes: membrane-targeting signal peptide, transmembrane and intracellular domain of murine Fas fused to ER(T2); planned positive control
- 4-OH-tamoxifen-dependent cell death, phenotype of stable clones (MEF5/N9 cells [2]): not affected by the treatment with 4-OH-tamoxifen
- basal toxicity: relative β-galactosidase activity compared to the negative control in absence of 4-OH-tamoxifen (MEF5/N9 cells [3]): 60%
- relative β-galactosidase activity in presence of 4-OH-tamoxifen compared to the negative control (MEF5/N9 cells [4]): 26%
- cell viability in the presence of 4-OH-tamoxifen (MTT) (MEF5/N9 cells [5]): not affected by treatment with 4-OH-tamoxifen
